Consider 14 molecules from US20220396624A1 (HC BIOPHARMA SHANGHAI, published 2022).

Some results are limits rather than exact numbers.

In assay [1] the target is T1, human PD-L1 on 293T-h-PDL1 cells (human, UniProt Q9NZQ7 19-238). Put plainly: FACS, hybridoma culture supernatant on 293T-h-PDL1 cells. On the technique in general: A flow cytometer gives signals particle by particle.
Experimental: 1 ml of flow cytometry buffer was added to each flow cytometry tube and centrifuged at 1200 rpm for 5 minutes. The supernatant was discarded and the washing was repeated three times. At the same time, both control tube 1 (no culture supernatant and secondary antibody below, only the cell suspension was added) and control tube 2 (no culture supernatant, only cell suspension and secondary antibody below were added) were set.
(§1) Then 100 μl of flow cytometry buffer was added to each flow cytometry tube and resuspension was performed. […] Then 1 ml of flow cytometry buffer was added and centrifuged at 1200 rpm for 5 minutes at room temperature, the supernatant was discarded and the washing was repeated three times. 250 μl of flow cytometry buffer was added to each flow cytometry tube again, the pellet was resuspended and mixed. The resulting samples was detected by the machine.
The target in assay [2] is T2, fusion protein of the extracellular region of human PD-L1 and human IgG1-FC (human, UniProt Q9NZQ7 19-238).
T2 construct: PD-L1 is put first by convention; also called fusion protein PD-L1 (hFC tag)
T2 sequence (Q9NZQ7 19-238): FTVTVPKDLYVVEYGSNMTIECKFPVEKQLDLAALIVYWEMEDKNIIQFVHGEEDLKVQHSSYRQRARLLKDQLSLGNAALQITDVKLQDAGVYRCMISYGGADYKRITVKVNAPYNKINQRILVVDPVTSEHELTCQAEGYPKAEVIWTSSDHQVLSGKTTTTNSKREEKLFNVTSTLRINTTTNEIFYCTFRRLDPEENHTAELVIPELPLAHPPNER
Kind of assay: FACS blocking of PD-L1-hFc binding to 293T-h-PD1 cells, hybridoma supernatant.
Experimental: (§2) Each well was then washed twice by adding 400 μl FACS buffer, PE anti-human IgG Fc secondary antibody was added and incubated for 1 hour, after which each well was washed twice by adding 400 μl FACS buffer. Detection was performed.

Assay [3] concerns the target T3, extracellular region of human PD-L1 protein (positions 19-238 of SEQ ID NO: 3) (human, UniProt Q9NZQ7 19-238).
T3 construct: also called Human PD-L1-his; antigen PD-L1
Kind of assay: ForteBio Octet (BLI), antibody immobilized, PD-L1 ECD 6.25-200 nM; culture supernatant. For orientation: In BLI a coated tip is dipped into the sample, and binding shifts an interference pattern.
Experimental: (§3) A 96-well plate was obtained, and 200 μl SD buffer (1×PBS+0.02% Tween20+0.1% BSA) was added to each well, the plate was placed in ForteBio Octet and pre-circulated.

Assay [4] concerns the target T3, extracellular region of human PD-L1 …. Kind of assay: ForteBio Octet (BLI), antibody immobilized, PD-L1 ECD 6.25-200 nM; antibody after purification.
Experimental: as §3
The antibody was immobilized and the concentration of the antibody after supernatant purification was 10 μg/ml.
In assay [5] the target is T1, human PD-L1 on 293T-h-PDL1 cells. Kind of assay: FACS, purified antibody on 293T-h-PDL1 cells.
Experimental: as §1
Control tube 1 (no antibody and secondary antibody, only cell suspension was added) and control tube 2 (no antibody, only cell suspension and secondary antibody was added) were set.
Assay [6] has as its target T2, fusion protein of the extracellular …. Kind of assay: FACS blocking of PD-L1-hFc binding to 293T-h-PD1 cells, purified antibody.
Experimental: as §2
In assay [7] the target is T3, extracellular region of human PD-L1 …. Put plainly: ForteBio Octet (BLI), antibody 20 nM, PD-L1 ECD from 30 nM in 3-fold dilutions.
Experimental: The murine antibody, chimeric antibody and humanized antibody of the present invention were dissolved in PBS to obtain 20 nM solutions.
The affinities of the antibody-antigen were determined using the ForteBio Octet as an affinity detection instrument.

T3 sequence (Q9NZQ7 19-238): as above
T1 sequence (Q9NZQ7 19-238): as above

B1: murine antibody 8A2 (A8) (antibody, V domains shown)
VH: QVQLKQSGPGLVAPSQSLSITCTVSGFSLTGYGVNWVRQPPGKGLEWLGKIWGDGITDYNSALKSRLSISKDNSKSQVFLKMNSLQTDDTARYYCARDVMDYWGQGTSVTVSS
VL: QIVLTQSPAIMSASPGEKVTMTCSASSSISYMHWYQQKPGTSPKRWIYDTSKLASGVPARFSGSESGTSYSLTISSMEAEDAATYYCHHRSPYPTFGAGTKLELK
notes: Mouse hybridoma antibody (subclone 8A2-2); Only variable domains printed; also called 8A2-2
Consider B1, for which the EC50 – broadly, the concentration giving half of the maximal effect – in assay [1] came to 0.336 µg/mL. Besides, in assay [2], the concentration for half-maximal inhibition (IC50) (usually the concentration at which inhibition is half-maximal) amounted to 5.17 µg/mL. Moreover, the Kd (as a rule, the equilibrium constant for the complex coming apart) in assay [3] is 2.04 nM; in assay [4], 4200 nM. The koff (in general, a measure of how fast the partners let go of each other) in assay [3] turned out to be 0.00034 s⁻¹; in assay [4] it was 0.137 s⁻¹.

B2: murine antibody 10A3 (A11) (antibody, V domains shown)
VH: QVQLKQSGPGLVAPSQSLSITCTVSGFSLTGYGVNWVRQPPGKGLEWLGKIWGDGITDYNSALKSRLSISKDNSKSQVFLKMNSLQTEDTARYYCARDVMDYWGQGTSVTVSS
VL: QIVLTQSPAIMSASPGEKVTMTCSASSSINYMHWFQQKPGTSPKRWIYDTSKLASGVPARFSGSESGTSYSLTISSMEAEDAATYYCHHRSPYPTFGAGTKLELKR
notes: Mouse hybridoma antibody (subclone 10A3-3); Only variable domains printed; also called 10A3-3
In assay [3], B2 registered an equilibrium dissociation constant (Kd) of 0.34 nM and a koff of 5.15e-05 s⁻¹. In assay [4], this molecule showed a dissociation constant Kd of 906 nM and an off-rate (koff) of 0.0296 s⁻¹.

B3: murine antibody 2E5 (A10) (antibody, V domains shown)
VH: QVQLKQSGPGLVAPSQSLSITCTVSGFSLTGYGVNWVRQPPGKGLEWLGKIWGDGITDYNSALKSRLSISKDNSKSQVFLKMNSLQTEDTARYYCARDVMDYWGQGTSVTVSS
VL: DVLMTQIPLSLPVSLGDQASISCRSSQSIEQSNGNTYLEWYLQKPGQSPKVLIYKVSNRFSGVPDRFSGSGSGTDFTLKISRVESEDLGVYYCFQGSHVPYTFGGGTKLEIK
notes: Mouse hybridoma antibody (subclone 2E5-9); Only variable domains printed; also called 2E5-9
As to B3, the dissociation constant Kd in assay [3] came out at 0.175 nM; in assay [4], 15 nM. Also, the koff in assay [3] is 5.61e-05 s⁻¹; in assay [4], 0.00376 s⁻¹.

B4: murine antibody 7E5 (A9) (antibody, V domains shown)
VH: QVQLKQSGPGLVAPSQSLSITCTVSGFSLTGYGVNWVRQPPGKGLEWLGKIWGDGSTDYTSALKSRLSISKDNSKSQVFLKVNSLQTDDTARYYCARDVMDYWGQGTSVTVSS
VL: QIVLTQSPAIMSASPGEKVTMTCSASSSISYMHWFQQKPGTSPKRWIYDTSKLASGVPARFSGSESGTSYSLTISSMEAEDAATYYCHQRSPYPTFGAGTKLELK
notes: Mouse hybridoma antibody (subclone 7E5-2); Only variable domains printed; also called 7E5-2
Regarding B4, the dissociation constant Kd in assay [3] turned out to be 0.498 nM; in assay [4], 3930 nM. Moreover, the off-rate (koff) in assay [3] was found to be 0.000172 s⁻¹; in assay [4], 0.11 s⁻¹.

B5: murine antibody 15G10 (A2) (antibody, V domains shown)
VH: QVQLKQSGPELVKPGASVKTSCKASGYTFTNYVVHWVKQNPGQGLEWIGYVNPNNDGTIFNEKFKDKAILTSDKSSSTAYMELSSLTSEDSAVYYCARSPFAHWGQGTLVTVSA
VL: QIVLTQSPASLTVSLGQRATISCSASESVDFYGTSLMQWFQQKPGQPPKLLVYTASNVDSEVPARFSGSGSGTDFSLNIHPVEEDDIAMYFCHQTRKVPYTFGGGTKLEIK
notes: Mouse hybridoma antibody (subclone 15G10-3), tested as culture supernatant; Only variable domains printed; also called 15G10-3
In turn, B5 returned a concentration for a half-maximal effect (EC50) in assay [1] of 1.45 µg/mL. The molecule also had an IC50 in assay [2] of 4 µg/mL.

B6: murine antibody 13C9 (A3) (antibody, V domains shown)
VH: QVQLKQSGAGLVKPGASVKLSCKASGYIFTEYIIHWVKQRSGQGLEWIGWFYPGSDNIKYNEKFKDKATLTADKSSSTVYMELSRLTSEDSAVYFCARHETGYFFDYWGQGTTLTVSS
VL: DIVITQSPAIMSASPGEKVTMTCSASSSVSKMNWYQQKSGTSPKRWIYDTSKLASGVPSRFSGSGSGTSYSLTISSMEAEDAATYYCQQWSSNPLTFGSGTKLELKR
notes: Mouse hybridoma antibody (subclone 13C9-1), tested as culture supernatant or purified; Only variable domains printed (the VL as printed ends in RA); also called 13C9-1
On to B6, for which the EC50 in assay [5] came to 0.49 µg/mL; in assay [1], 0.44 µg/mL. Moreover, the IC50 in assay [6] is 2.38 µg/mL; in assay [2] it was 1.95 µg/mL. Moreover, the dissociation constant Kd in assay [3] came to 0.00181 nM; in assay [4] it was 2.78 nM. For the same molecule, the results for the koff in assay [3] and in assay [4] were 6.32e-07 s⁻¹ and 0.00117 s⁻¹, respectively.

B7: murine antibody 6G5 (A12) (antibody, V domains shown)
VH: QVQLKQSGAELVRPGTSVKMSCKATEYTFTNNWIAWVKQRPGHGLEWIGDIHPGGGYTNYNEKFKGKATLTADTSSSTAYMQLSSLTSEDSAIYYCAGSKTRDYDSWFAYWGQGTLVTVSA
VL: DIVITQSPAIMSASPGEKVTMTCSASSSVSKMNWYQQKSGTSPKRWIYDTSKLASGVPSRFSGSGSGTSYSLTISSMEAEDAATYYCQQWSSNPLTFGSGTKLELKR
notes: Mouse hybridoma antibody (subclone 6G5-2); Only variable domains printed; the printed VL is identical to that of 13C9; also called 6G5-2
For B7, in assay [3], the equilibrium dissociation constant (Kd) is 0.111 nM and the koff worked out at 7.94e-05 s⁻¹. In assay [4], this molecule yielded a Kd of 1.07 nM and a koff of 0.000838 s⁻¹.

B8: murine antibody 18B4 (A4) (antibody, V domains shown)
VH: QVQLKQSGPELEKPGASVKISCKASGYSFTGYNMNWVKQSNGKSLEWIGNIDPYYGVTHYNQKFKGKATLTVDESSSTASMQLKSLTSEDSAIYYCARGIPFYGLDYWGQGTSVTVSS
VL: QIVLTQSPAIMSASPGEKVTMTCGASSSVSFMHWYQQKSGTSPKRWIYDTSKLASGVPARFSGSGSGTSYSLTISSMEAEDAATYYCQQWNTNPFTFGSGTKLEIKR
notes: Mouse hybridoma antibody (subclone 18B4-2); Only variable domains printed; also called 18B4-2
B8 yielded an EC50 in assay [1] of 0.125 µg/mL. Further, the Kd was found to be 0.586 nM in assay [3] and 936 nM in assay [4]. In addition, the off-rate (koff) turned out to be 0.000662 s⁻¹ in assay [3] and 0.191 s⁻¹ in assay [4].

B9: chimeric antibody 13C9-1(chi) (antibody, V domains shown)
VH: QVQLKQSGAGLVKPGASVKLSCKASGYIFTEYIIHWVKQRSGQGLEWIGWFYPGSDNIKYNEKFKDKATLTADKSSSTVYMELSRLTSEDSAVYFCARHETGYFFDYWGQGTTLTVSS
VL: DIVITQSPAIMSASPGEKVTMTCSASSSVSKMNWYQQKSGTSPKRWIYDTSKLASGVPSRFSGSGSGTSYSLTISSMEAEDAATYYCQQWSSNPLTFGSGTKLELKR
notes: Chimeric antibody of murine 13C9
B9 returned an EC50 in assay [5] of 1.42 µg/mL. In assay [6], this molecule showed an IC50 of 2.47 µg/mL.

B10: humanized antibody 14A7(hz) (antibody, V domains shown)
VH: QVQLVQSGAEVKKPGASVKVSCKASEYTFTNNWIAWVRQAPGQGLEWVGDIHPGGGFTNYNEKFKVRATLTADTSTSTAYMELSSLRSEDTAVYYCAGSKTRDYDAWFAYWGQGTTVTVSS
VL: DIQMTQSPSTLSASVGDRVTITCKSSQSLLYTGNQKNYLAWYQQKPGKAPKLLIYWASTRESGVPSRFSGSGSGTEFTLTISSLQPDDFATYYCQQYYTYRTFGQGTKVEIKR
notes: also called 14A7-4(hz)
On to B10, for which the concentration for a half-maximal effect (EC50) in assay [5] was 0.77 µg/mL. The molecule also had an IC50 in assay [6] of 1.95 µg/mL. Besides, in assay [7], binding was put at a Kd of 0.884 nM and the koff worked out at 0.000358 s⁻¹.

B11: chimeric antibody 14A7(chi) (antibody, V domains shown)
VH: QVQLKQSGAELVRPGTSVKMSCKATEYTFTNNWIAWVKQRPGHGLEWVGDIHPGGGFTNYNEKFKVKATLTADTSSSTAYMQLRSLTSEDSAIYYCAGSKTRDYDAWFAYWGQGTLVTVSA
VL: DIVMTQAPSSLAVSVGEKVTLNCKSSQSLLYTGNQKNYLAWYQQKPGQSPKLLIYWASTRESGVPDRFTGSGSGTDFTLTISNVKAEDLAVYFCQQYYTYRTFGGGTKLEIKR
notes: also called 14A7-4(chi)
In the case of B11, the EC50 in assay [5] amounted to 1.32 µg/mL. The concentration for half-maximal inhibition (IC50) in assay [6] came out at 5.66 µg/mL. In assay [7], this molecule had a dissociation constant (Kd) of 4.56 nM and a dissociation rate constant (koff) of 0.00173 s⁻¹.

B12: murine antibody 28B1 (A5), subclone 28B1-2 (antibody, V domains shown)
VH: QVQLKQSGAELVKPGASVMLSCTASAFNIDDTYIHWVKQRPEQGLEWIGRIDPANGNTDYDPECQGKATITTDMSSNTAYLQLSSLTSEDTAVYFCARGLRLPGLVYWGRGTLVTVSA
VL: DIQMTQTTSSLSASLGDRVTISCRASQDISNYLNWYQQKPDGTVKLLIYYTSILYSGVPSRFSGSGSGTDYSLTINTLEEEDIATYFCQQGNTLPWTFGGGTKLEIIR
notes: Mouse hybridoma antibody; Only variable domains printed
In assay [1], B12 showed a concentration for a half-maximal effect (EC50) of 0.39 µg/mL. The IC50 in assay [2] turned out to be 2.31 µg/mL. In assay [3], the dissociation constant Kd came to 0.00924 nM and the koff was 6.26e-06 s⁻¹. In assay [4], this molecule had an equilibrium dissociation constant (Kd) of 0.785 nM and a koff of 0.000785 s⁻¹.

B13: murine antibody 28B1 (A5), subclone 28B1-7 (antibody, V domains shown)
VH: QVQLKQSGAELVKPGASVMLSCTASAFNIDDTYIHWVKQRPEQGLEWIGRIDPANGNTDYDPECQGKATITTDMSSNTAYLQLSSLTSEDTAVYFCARGLRLPGLVYWGRGTLVTVSA
VL: DIQMTQTTSSLSASLGDRVTISCRASQDISNYLNWYQQKPDGTVKLLIYYTSILYSGVPSRFSGSGSGTDYSLTINTLEEEDIATYFCQQGNTLPWTFGGGTKLEIIR
Take B13: in assay [3], the dissociation constant (Kd) is below 0.001 nM and the off-rate (koff) was below 1e-07 s⁻¹. In assay [4], this molecule gave a Kd of 0.748 nM and a koff of 0.000723 s⁻¹.

B14: murine antibody 22B10 (A6) (antibody, V domains shown)
VH: QVQLKQSGAELVKPGASVELSCTASGFNIEDTYLHWVNQRPEQGLEWIGRIDPANGNTYYDPKFQGKATITTDTSSNTAYLQLSRLTSEDTAVYYCARGLRLPGFPYWGQGTLVTVSA
VL: DIQMTQTPSSLSASLGDRVTISCRASQDISNYLSWYQQKPDGTVKLLIYYTSILHSGVPSRFSGSGSGTDYSLAISNLDQEDIATYFCQQGNTLPWTFGGGTKLEIKR
notes: Mouse hybridoma antibody (subclone 22B10-1); Only variable domains printed; also called 22B10-1
In turn, B14 returned a concentration for a half-maximal effect (EC50) in assay [1] of 0.517 µg/mL. Also, the IC50 in assay [2] was found to be 4.31 µg/mL. In assay [3], this molecule had a Kd of 0.0714 nM and a koff of 4.43e-05 s⁻¹. Further, in assay [4], the Kd was 0.528 nM and the koff was 0.000481 s⁻¹.
